Experimental data taken from IntAct's records for PubMed 35512704.

B1: Mothers against decapentaplegic homolog 4 (Homo sapiens), Q13485 (parent)
chain: MDNMSITNTPTSNDACLSIVHSLMCHRQGGESETFAKRAIESLVKKLKEKKDELDSLITAITTNGAHPSKCVTIQRTLDGRLQVAGRKGFPHVIYARLWRWPDLHKNELKHVKYCQYAFDLKCDSVCVNPYHYERVVSPGIDLSGLTLQSNAPSSMMVKDEYVHDFEGQPSLSTEGHSIQTIQHPPSNRASTETYSTPALLAPSESNATSTANFPNIPVASTSQPASILGGSHSEGLLQIASGPQPGQQQNGFTGQPATYHHNSTTTWTGSRTAPYTPNLPHHQNGHLQHHPPMPPHPGHYWPVHNELAFQPPISNHPAPEYWCSIAYFEMDVQVGETFKVPSSCPIVTVDGYVDPSGGDRFCLGQLSNVHRTEAIERARLHIGKGVQLECKGEGDVWVRCLSDHAVFVQSYYLDREAGRAPGDAVHKIYPSAYIKVFDLRQCHRQMQQQAATAQAAAAAQAAAVAGNIPGPGSVGGIAPAISLSAAAGIGVDDLRRLCILRMSFVKGWGPDYPRQSIKETPCWIEIHLHRALQLLDEVLHTMPIADPQPLD
partner: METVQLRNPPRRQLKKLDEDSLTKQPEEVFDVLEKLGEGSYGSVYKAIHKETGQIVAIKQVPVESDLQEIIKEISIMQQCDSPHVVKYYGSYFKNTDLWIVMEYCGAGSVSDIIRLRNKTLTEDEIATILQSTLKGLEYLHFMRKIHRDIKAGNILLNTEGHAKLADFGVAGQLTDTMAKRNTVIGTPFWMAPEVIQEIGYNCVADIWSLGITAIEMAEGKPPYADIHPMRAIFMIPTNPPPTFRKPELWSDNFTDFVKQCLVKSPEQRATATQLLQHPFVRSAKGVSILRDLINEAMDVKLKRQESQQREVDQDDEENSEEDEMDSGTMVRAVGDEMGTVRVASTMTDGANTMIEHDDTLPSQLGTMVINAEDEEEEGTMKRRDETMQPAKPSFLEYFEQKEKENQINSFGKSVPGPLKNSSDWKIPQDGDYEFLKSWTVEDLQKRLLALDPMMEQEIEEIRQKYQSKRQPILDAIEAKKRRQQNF
B2: Mothers against decapentaplegic homolog 4 (Homo sapiens), Q13485 (parent)
chain: B1 chain
partner: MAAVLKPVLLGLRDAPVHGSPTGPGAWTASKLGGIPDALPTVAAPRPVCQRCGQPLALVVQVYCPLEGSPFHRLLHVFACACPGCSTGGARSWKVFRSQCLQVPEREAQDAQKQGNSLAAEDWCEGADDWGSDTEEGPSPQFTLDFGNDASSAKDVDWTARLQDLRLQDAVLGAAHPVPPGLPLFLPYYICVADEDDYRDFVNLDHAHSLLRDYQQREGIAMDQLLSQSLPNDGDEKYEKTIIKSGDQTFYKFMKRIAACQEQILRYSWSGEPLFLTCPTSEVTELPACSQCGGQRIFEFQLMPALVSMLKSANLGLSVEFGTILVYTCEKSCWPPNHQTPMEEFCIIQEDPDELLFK
B3: Mothers against decapentaplegic homolog 4 (Homo sapiens), Q13485 (parent)
chain: B1 chain
partner: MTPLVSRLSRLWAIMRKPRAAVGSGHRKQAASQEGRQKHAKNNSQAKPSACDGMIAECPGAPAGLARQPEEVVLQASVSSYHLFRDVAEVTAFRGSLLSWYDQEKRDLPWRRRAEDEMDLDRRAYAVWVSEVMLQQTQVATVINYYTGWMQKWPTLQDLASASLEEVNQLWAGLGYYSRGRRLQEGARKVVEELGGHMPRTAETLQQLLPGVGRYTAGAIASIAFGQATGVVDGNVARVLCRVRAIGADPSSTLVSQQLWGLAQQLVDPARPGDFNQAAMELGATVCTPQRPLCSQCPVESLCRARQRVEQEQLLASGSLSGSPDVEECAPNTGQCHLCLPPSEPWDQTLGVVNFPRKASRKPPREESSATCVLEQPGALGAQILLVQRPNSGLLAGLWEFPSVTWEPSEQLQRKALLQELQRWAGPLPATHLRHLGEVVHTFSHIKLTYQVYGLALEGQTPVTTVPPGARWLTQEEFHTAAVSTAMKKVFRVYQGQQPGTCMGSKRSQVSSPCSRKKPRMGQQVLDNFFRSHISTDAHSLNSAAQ
B4: Mothers against decapentaplegic homolog 4 (Homo sapiens), Q13485 (parent)
chain: B1 chain
partner: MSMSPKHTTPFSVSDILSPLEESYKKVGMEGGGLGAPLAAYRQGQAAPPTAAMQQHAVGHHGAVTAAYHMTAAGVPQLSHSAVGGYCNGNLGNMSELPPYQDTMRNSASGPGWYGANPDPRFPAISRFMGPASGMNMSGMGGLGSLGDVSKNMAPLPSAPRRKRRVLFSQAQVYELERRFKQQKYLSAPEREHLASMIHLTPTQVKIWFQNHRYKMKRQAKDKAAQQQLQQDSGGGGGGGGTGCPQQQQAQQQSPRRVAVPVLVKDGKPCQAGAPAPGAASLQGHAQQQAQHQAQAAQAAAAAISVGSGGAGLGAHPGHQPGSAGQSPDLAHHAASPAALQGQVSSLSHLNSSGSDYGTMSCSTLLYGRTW
B5: Mothers against decapentaplegic homolog 4 (Homo sapiens), Q13485 (parent)
chain: B1 chain
partner: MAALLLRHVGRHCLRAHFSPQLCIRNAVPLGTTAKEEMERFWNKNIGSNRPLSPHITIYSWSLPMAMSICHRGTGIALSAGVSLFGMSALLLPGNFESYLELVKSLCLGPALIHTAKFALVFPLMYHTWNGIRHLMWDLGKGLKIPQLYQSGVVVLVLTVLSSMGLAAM
B6: Mothers against decapentaplegic homolog 4 (Homo sapiens), Q13485 (parent)
chain: B1 chain
partner: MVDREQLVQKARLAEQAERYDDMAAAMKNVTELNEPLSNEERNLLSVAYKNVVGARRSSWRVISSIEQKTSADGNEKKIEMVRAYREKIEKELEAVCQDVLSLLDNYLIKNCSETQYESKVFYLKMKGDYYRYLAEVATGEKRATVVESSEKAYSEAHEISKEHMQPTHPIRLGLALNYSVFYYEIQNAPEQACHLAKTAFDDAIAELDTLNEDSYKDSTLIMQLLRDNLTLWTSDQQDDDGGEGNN
B7: Mothers against decapentaplegic homolog 4 (Homo sapiens), Q13485 (parent)
chain: B1 chain
partner: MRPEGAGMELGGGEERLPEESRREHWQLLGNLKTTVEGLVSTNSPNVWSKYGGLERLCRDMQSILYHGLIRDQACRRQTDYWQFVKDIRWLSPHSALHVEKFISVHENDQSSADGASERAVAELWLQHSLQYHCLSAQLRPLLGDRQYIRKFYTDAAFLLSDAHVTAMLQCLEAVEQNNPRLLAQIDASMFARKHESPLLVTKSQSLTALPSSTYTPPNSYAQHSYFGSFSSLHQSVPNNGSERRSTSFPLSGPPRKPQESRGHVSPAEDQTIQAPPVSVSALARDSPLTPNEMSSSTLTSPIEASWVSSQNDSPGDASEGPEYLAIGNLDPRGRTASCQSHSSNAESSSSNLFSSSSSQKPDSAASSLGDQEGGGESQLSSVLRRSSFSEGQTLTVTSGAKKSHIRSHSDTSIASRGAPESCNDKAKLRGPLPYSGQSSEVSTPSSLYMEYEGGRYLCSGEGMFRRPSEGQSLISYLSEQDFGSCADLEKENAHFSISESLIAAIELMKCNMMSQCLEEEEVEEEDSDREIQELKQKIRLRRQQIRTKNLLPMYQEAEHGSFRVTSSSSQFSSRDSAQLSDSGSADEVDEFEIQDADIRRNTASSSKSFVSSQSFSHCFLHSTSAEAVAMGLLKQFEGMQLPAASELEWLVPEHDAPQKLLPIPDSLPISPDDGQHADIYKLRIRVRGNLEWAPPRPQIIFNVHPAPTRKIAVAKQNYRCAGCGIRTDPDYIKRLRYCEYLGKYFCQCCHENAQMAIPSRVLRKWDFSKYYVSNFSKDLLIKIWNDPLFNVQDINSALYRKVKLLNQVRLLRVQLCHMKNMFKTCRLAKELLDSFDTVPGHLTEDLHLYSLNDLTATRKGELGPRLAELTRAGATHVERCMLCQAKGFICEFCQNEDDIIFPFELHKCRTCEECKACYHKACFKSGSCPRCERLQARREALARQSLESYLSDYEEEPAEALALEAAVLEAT

Variants of: B1
Details: with stk4_human STK4, Q13043
In the case of G386D, the “effect of a mutation on the interaction” value is reported as “with no effect”.

Variants of: B1
Details: with stk4_human STK4, Q13043
Remark: another data set of the same source
In the case of R361C, the “effect of a mutation on the interaction” value is reported as “with no effect”.

Variants of: B1
Details: with stk4_human STK4, Q13043
Remark: another data set of the same source
R361H was tested, and the “effect of a mutation on the interaction” value was “with no effect”.

Variants of: B1
Details: with stk4_human STK4, Q13043
Remark: another data set of the same source
With D351H the “effect of a mutation on the interaction” value was “with no effect”.

Variants of: B2
Details: with pdd2l_human PDCD2L
D351H was tested, and the “effect of a mutation on the interaction” value was “with no effect”.

Variants of: B2
Details: with pdd2l_human PDCD2L
Remark: another data set of the same source
In the case of G386D, the “effect of a mutation on the interaction” value is reported as “with no effect”.

Variants of: B2
Details: with pdd2l_human PDCD2L
Remark: another data set of the same source
R361H was tested, and the “effect of a mutation on the interaction” value was “with no effect”.

Variants of: B2
Details: with pdd2l_human PDCD2L
Remark: another data set of the same source
For R361C, the “effect of a mutation on the interaction” value was “with no effect”.

Variants of: B3
Details: with mutyh_human MUTYH
With G386D the “effect of a mutation on the interaction” value was “with no effect”.

Variants of: B3
Details: with mutyh_human MUTYH
Remark: another data set of the same source
R361C was tested, and the “effect of a mutation on the interaction” value was “with no effect”.

Variants of: B3
Details: with mutyh_human MUTYH
Remark: another data set of the same source
With D351H the “effect of a mutation on the interaction” value was “with no effect”.

Variants of: B4
Details: with nkx21_human NKX2-1, P43699
In the case of G386D, the “effect of a mutation on the interaction” value is reported as “with no effect”.

Variants of: B4
Details: with nkx21_human NKX2-1, P43699
Remark: another data set of the same source
R361C was tested, and the “effect of a mutation on the interaction” value was “with no effect”.

Variants of: B4
Details: with nkx21_human NKX2-1, P43699
Remark: another data set of the same source
R361H was tested, and the “effect of a mutation on the interaction” value was “with no effect”.

Variants of: B4
Details: with nkx21_human NKX2-1, P43699
Remark: another data set of the same source
D351H was tested, and the “effect of a mutation on the interaction” value was “with no effect”.

Variants of: B5
Details: with c560_human SDHC
With R361C the “effect of a mutation on the interaction” value was “with no effect”.

Variants of: B5
Details: with c560_human SDHC
Remark: another data set of the same source
With R361H the “effect of a mutation on the interaction” value was “with no effect”.

Variants of: B5
Details: with c560_human SDHC
Remark: another data set of the same source
In the case of G386D, the “effect of a mutation on the interaction” value is reported as “with no effect”.

Variants of: B5
Details: with c560_human SDHC
Remark: another data set of the same source
In the case of D351H, the “effect of a mutation on the interaction” value is reported as “with no effect”.

Variants of: B6
Details: with 1433g_human YWHAG
With R361C the “effect of a mutation on the interaction” value was “with no effect”.

Variants of: B6
Details: with 1433g_human YWHAG
Remark: another data set of the same source
D351H was tested, and the “effect of a mutation on the interaction” value was “with no effect”.

Variants of: B7
Details: with rubic_human RUBCN
With R361H the “effect of a mutation on the interaction” value was “with no effect”.

Variants of: B7
Details: with rubic_human RUBCN
Remark: another data set of the same source
In the case of R361C, the “effect of a mutation on the interaction” value is reported as “with no effect”.
